Test results as given in patent US20040146507A1 (Genentech, published 2004).
“And” between values parts separate entries of the source, which are not always exact repeats. Equal values may be shown once.

What was measured:
human CD11a [1] = target: T1, human CD11a (human, UniProt P20701 26-1170); test: saturation binding, human lymphocytes, donor 1; Kd(app)
T1 construct: whole, on cells; On Jurkat T-cells or human peripheral blood mononuclear cells, as part of LFA-1; also called CD11a on Jurkat cells; alpha subunit of LFA-1
Protocol: (§1) Radiolabeled antibodies were prepared using Iodo-Gen (Pierce, Rockford, Ill.) according to the manufacturer's instructions. 50 μg of antibody and 1 mCi¹²⁵I (DuPont, Wilmington, Del.) were added to each tube and incubated for 15 min at 25° C. Radiolabeled proteins were purified from the remaining free ¹²⁵I using PD-10 columns (Pharmacia, Uppsala, Sweden) equilibrated in Hank's Balanced Salt Solution (HBSS, Life Technologies, Grand Island, N.Y.) containing 0.2% gelatin.
(§2) Antibody affinities were determined by saturation binding using either peripheral blood mononuclear cells (murine MHM24 and HuIgG1) or rhesus leukocytes (MHM23, RhIgG1). In each assay, a radiolabeled antibody was serially diluted in HBSS-0.2% gelatin in quadruplicate. Nonspecific binding was determined by the addition of 500 nM final concentration of homologous unlabeled antibody in duplicate through the serial dilution. Human lymphocytes or rhesus leukocytes were added to the plates in a volume of 170 μl per well. Plates were incubated for 2 hr at room temperature on an orbital plate shaker. After incubation, cells were harvested using a SKATRON™ cell harvester (Lier, Norway) and washed 10 times with PBS containing 0.25% gelatin and 0.1% sodium azide. Samples were then counted for 1 min in an LBK Wallac GammaMaster gamma counter (Gaithersburg, Md.). […]

human CD11a [2] = target: T1, human CD11a; test: saturation binding, 125I-antibody, human lymphocytes; Kd(app)
Protocol: as §1, §2

rhesus CD11a [3] = target: T2, rhesus CD11a (rhesus, UniProt H9Z8N3 26-1169); test: binding to rhesus CD11a compared with human CD11a
T2 construct: whole, on cells; On rhesus peripheral blood lymphocytes or leukocytes; also called rhCD11a
T2 sequence: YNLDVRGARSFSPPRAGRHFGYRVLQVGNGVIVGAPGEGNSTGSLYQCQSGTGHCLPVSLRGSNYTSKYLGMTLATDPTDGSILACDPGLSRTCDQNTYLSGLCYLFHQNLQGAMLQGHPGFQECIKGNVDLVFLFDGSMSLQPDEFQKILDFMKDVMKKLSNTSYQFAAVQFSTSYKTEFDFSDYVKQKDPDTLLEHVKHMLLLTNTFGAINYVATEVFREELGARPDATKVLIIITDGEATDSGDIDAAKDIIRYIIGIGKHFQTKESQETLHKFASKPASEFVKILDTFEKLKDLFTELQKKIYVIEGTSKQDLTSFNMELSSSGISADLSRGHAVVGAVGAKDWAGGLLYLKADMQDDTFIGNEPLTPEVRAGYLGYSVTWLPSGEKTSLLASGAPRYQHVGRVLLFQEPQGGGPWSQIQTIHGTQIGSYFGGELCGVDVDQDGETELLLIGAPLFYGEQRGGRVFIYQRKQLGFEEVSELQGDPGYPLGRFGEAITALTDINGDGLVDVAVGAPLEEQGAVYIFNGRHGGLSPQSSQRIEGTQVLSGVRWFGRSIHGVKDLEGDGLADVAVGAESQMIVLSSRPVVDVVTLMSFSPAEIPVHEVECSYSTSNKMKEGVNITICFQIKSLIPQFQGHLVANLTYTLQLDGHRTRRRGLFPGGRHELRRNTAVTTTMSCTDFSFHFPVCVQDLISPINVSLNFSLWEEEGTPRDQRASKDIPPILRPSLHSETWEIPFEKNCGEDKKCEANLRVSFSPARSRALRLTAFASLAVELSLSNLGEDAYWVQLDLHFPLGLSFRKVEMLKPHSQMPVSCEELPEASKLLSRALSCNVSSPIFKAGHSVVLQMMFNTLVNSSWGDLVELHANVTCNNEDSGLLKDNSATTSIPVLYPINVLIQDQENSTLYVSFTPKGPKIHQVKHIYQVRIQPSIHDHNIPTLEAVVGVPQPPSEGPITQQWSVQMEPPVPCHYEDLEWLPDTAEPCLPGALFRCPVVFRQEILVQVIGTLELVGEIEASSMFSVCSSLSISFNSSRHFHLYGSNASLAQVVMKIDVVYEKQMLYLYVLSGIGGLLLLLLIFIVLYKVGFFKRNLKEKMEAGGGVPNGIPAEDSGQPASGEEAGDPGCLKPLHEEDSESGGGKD

human CD11a [4] = target: T1, human CD11a; test: saturation binding, human lymphocytes, donor 2; Kd(app)
Protocol: as §1, §2

human CD11a [5] = target: T1, human CD11a; test: cell-based or functional assay
rhesus CD11a [6] = target: T2, rhesus CD11a; test: rhesus PBL binding; end of range assigned by the printed EC50s
rhesus CD11a [7] = target: T2, rhesus CD11a; test: saturation binding
Protocol: Antibody affinities were determined by saturation binding using either peripheral blood mononuclear cells (murine MHM24 and HuIgG1) or rhesus leukocytes (MHM23, RhIgG1). In each assay, a radiolabeled antibody was serially diluted in HBSS-0.2% gelatin in quadruplicate. Nonspecific binding was determined by the addition of 500 nM final concentration of homologous unlabeled antibody in duplicate through the serial dilution. Human lymphocytes or rhesus leukocytes were added to the plates in a volume of 170 μl per well. Plates were incubated for 2 hr at room temperature on an orbital plate shaker. After incubation, cells were harvested using a SKATRON™ cell harvester (Lier, Norway) and washed 10 times with PBS containing 0.25% gelatin and 0.1% sodium azide. Samples were then counted for 1 min in an LBK Wallac GammaMaster gamma counter (Gaithersburg, Md.). Data was transformed from counts per minute to nanomolarity and four-parameter curve-fitting of saturation plots (bound versus total) was then performed to determine Kd (app) values.

rhesus CD11a [8] = target: T2, rhesus CD11a; test: cell-based or functional assay
rhesus CD11a [9] = target: T2, rhesus CD11a; test: rhesus PBL binding
rhesus CD11a [10] = target: T2, rhesus CD11a; test: saturation binding, rhesus leukocytes, donor 1; Kd(app)
Protocol: as §1
Leukocytes were purified from heparinized rhesus monkey peripheral blood collected from two individuals by Dextran sedimentation. Blood was diluted with an equal volume of 3% Dextran T500 (Pharmacia) in PBS and was allowed to sediment undisturbed at 25° C. for 30 min. After sedimentation, cells remaining in suspension were harvested and pelleted by centrifugation at 400×g for 5 min. Residual erythrocytes were removed by two cycles of hypotonic lysis using distilled water and 2×HBSS. […]
Antibody affinities were determined by saturation binding using either peripheral blood mononuclear cells (murine MHM24 and HuIgG1) or rhesus leukocytes (MHM23, RhIgG1). […] Nonspecific binding was determined by the addition of 500 nM final concentration of homologous unlabeled antibody in duplicate through the serial dilution. […] Samples were then counted for 1 min in an LBK Wallac GammaMaster gamma counter (Gaithersburg, Md.). […]

rhesus CD11a [11] = target: T2, rhesus CD11a; test: rhesus PBL binding; remark: listed apart in the source
rhesus CD11a [12] = target: T2, rhesus CD11a; test: saturation binding, rhesus leukocytes, donor 3, with 1 mg/ml human IgG1; Kd(app)
Protocol: Leukocytes were purified from heparinized rhesus monkey peripheral blood collected from two individuals by Dextran sedimentation. Blood was diluted with an equal volume of 3% Dextran T500 (Pharmacia) in PBS and was allowed to sediment undisturbed at 25° C. for 30 min. After sedimentation, cells remaining in suspension were harvested and pelleted by centrifugation at 400×g for 5 min. Residual erythrocytes were removed by two cycles of hypotonic lysis using distilled water and 2×HBSS. After erythrocyte lysis, cells were washed in PBS and then resuspended in HBSS-0.2% gelatin.
as §2, with “After incubation, cells were harvested using a SKATRON™ cell harvester (Lier, Norway) and washed 10 times with PBS containing 0.25% gelatin and 0.1% sodium azide.” left out

[13] = target: T3, rhesus-human chimeric CD11a (human (I-domain mutated to rhesus), UniProt P20701 26-1170); test: cell-based or functional assay
T3 sequence (looked up): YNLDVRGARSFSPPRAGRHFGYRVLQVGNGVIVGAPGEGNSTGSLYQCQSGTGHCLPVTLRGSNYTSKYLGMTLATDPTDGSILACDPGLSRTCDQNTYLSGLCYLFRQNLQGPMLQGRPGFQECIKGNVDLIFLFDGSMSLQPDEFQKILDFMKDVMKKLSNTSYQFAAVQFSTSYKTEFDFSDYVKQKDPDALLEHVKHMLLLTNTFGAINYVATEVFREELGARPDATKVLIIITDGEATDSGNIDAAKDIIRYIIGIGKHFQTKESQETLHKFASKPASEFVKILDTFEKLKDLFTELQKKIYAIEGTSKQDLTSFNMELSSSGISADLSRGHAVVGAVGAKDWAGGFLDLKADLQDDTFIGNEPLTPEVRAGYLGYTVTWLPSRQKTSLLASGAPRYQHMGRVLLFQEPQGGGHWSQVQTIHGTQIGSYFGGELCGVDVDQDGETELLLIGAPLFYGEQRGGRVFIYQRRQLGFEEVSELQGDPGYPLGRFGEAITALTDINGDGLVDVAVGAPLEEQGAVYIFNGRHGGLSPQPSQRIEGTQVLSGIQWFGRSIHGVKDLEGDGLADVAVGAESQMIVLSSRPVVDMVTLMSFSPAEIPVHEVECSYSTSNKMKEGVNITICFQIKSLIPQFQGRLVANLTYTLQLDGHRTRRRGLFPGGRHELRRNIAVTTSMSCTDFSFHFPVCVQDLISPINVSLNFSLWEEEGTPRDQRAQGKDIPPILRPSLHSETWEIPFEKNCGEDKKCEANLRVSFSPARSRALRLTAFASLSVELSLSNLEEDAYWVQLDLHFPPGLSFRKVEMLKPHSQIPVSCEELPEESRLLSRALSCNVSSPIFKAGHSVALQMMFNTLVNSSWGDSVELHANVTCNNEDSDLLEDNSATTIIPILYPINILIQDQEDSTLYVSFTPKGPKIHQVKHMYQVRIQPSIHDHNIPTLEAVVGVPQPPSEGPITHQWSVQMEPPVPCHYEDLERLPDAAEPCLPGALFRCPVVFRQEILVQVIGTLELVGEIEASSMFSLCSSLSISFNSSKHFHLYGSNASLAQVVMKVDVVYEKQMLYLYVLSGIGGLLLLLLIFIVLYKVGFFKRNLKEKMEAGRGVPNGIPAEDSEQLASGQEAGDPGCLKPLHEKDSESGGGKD

rhesus CD11a [14] = target: T2, rhesus CD11a; test: cell-based or functional assay; remark: listed apart in the source
[15] = target: T3, rhesus-human chimeric CD11a; test: cell-based or functional assay; remark: listed apart in the source
rhesus CD11a [16] = target: T2, rhesus CD11a; test: cell-based or functional assay; remark: listed apart in the source

B1: murine MHM24 (antibody, V domains shown)
VH: EVQLQQPGAELMRPGASVKLSCKASGYSFTGHWMNWVRQRPGQGLEWIGMIHPSDSETRLNQKFKDKATLTVDKSSSSAYMQLSSPTSEDSAVYYCARGIYFYGTTYFDYWGQGTTLTVSS
VL: DVQITQSPSYLAASPGETISINCRASKTISKYLAWYQEKPGKTNKLLIYSGSTLQSGIPSRFSGSGSGTDFTLTISSLEPEDFAMYYCQQHNEYPLTFGTGTKLELKR
notes: Murine anti-human CD11a monoclonal antibody; also called muMHM24; murMHM24
Kd (human CD11a [1]): 0.16 nM | Kd (human CD11a [2]): 0.15 nM | fold reduction in binding against human CD11a (rhesus CD11a [3]): ~1000 fold | Kd (human CD11a [4]): 0.13 nM | IC50, blocking of cell adhesion, Jurkat: HuK (human CD11a [5]): 0.09 nM

B2: rhesus-binding MHM24 IgG1 (antibody, V domains shown)
VH: EVQLVESGGGLVQPGGSLRLSCAASGYSFTGHWMNWVRQAPGKGLEWVGMIAPASSSTRYNQKFKDRFTISVDKSKNTLYLQMNSLRAEDTAVYYCARGIYFYGTTYFDYWGQGTLVTVSS
VL: DIQMTQSPSSLSASVGDRVTITCRASKTISKYLAWYQQKPGKAPKLLIYSGSTLQSGVPSRFSGSGSGTDFTLTISSLQPEDFATYYCQQHNEYPLTFGQGTKVEIKR
notes: HuIgG1 mutant (H52 Ala, H53 Ala, H54 Ser, H56 Ser); human IgG1; also called RhIgG1; H2C12
fold improvement over EC50 of HuIgG1 for rhesus CD11a (rhesus CD11a [6]): 240 to 415 fold | fold weaker than EC50 of HuIgG1 for human CD11a (rhesus CD11a [6]): 3 to 5 fold | fold Kd against Kd of HuIgG1 for human CD11a (rhesus CD11a [7]): ~26 fold | IC50, rhesus mixed lymphocyte response (rhesus CD11a [8]): 23.4 nM | EC50 (rhesus CD11a [9]): 0.19 nM | Kd (rhesus CD11a [10]): 3.9 nM | Var.EC50/HuIgG1 EC50 (rhesus CD11a [11]): 0.004 ratio | Kd (rhesus CD11a [12]): 2.8 nM and 2.7 nM | fold down from MHM23, Rh/HuCD11a-293: HuK adhesion [13]: 4 fold | fold less efficacious than MHM23, RhLy: HuICAM adhesion (rhesus CD11a [14]): 4 fold | fold less efficacious than MHM23, RhLy: HuK adhesion (rhesus CD11a [14]): 74 fold | IC50, blocking of cell adhesion, Rh/HuCD11a: HuK [15]: 4.9 nM | IC50, blocking of cell adhesion, RhLy: HuICAM (rhesus CD11a [16]): 5.3 nM | IC50, blocking of cell adhesion, RhLy: HuK (rhesus CD11a [16]): 119 nM
